Measurements from patent US20250026787A1, “PEPTIDES AND METHODS FOR REDUCING SKIN PIGMENTATION” (Glo Pharma, Inc., priority 2021, published 2025).
Blank lines part the entries; values can stand above or below the binder they belong to. Square brackets hold non-standard residues; d marks the D form. Ends that are not written are not given here.

Target: Human recombinant melanocortin MC1 receptor (human) (UniProt Q01726)
Assay: radioligand competition, displacement of [125I]NDP-alpha-MSH from human MC1R (CHO-K1), Example 7

Sequence of Human recombinant melanocortin MC1 receptor (human) (Q01726 whole entry): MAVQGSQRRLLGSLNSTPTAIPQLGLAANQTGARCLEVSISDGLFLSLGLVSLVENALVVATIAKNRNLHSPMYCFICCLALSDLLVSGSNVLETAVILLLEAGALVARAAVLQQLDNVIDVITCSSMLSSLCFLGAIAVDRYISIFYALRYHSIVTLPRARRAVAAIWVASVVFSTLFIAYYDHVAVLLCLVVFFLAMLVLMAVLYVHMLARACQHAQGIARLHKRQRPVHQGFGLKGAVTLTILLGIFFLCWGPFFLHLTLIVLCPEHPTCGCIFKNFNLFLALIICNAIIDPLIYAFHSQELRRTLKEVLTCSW

- IC50: > 500 nM
B1: SEQ ID NO: 40 (peptide)
peptide: A[dL][dF]R[dW]FKPV-NH2
modifications: N-terminus assumed
SMILES: CC(C)C[C@@H](NC(=O)[C@H](C)N)C(=O)N[C@H](Cc1ccccc1)C(=O)N[C@@H](CCCNC(=N)N)C(=O)N[C@H](Cc1c[nH]c2ccccc12)C(=O)N[C@@H](Cc1ccccc1)C(=O)N[C@@H](CCCCN)C(=O)N1CCC[C@H]1C(=O)N[C@H](C(N)=O)C(C)C

- IC50: > 500 nM
B2: SEQ ID NO: 35 (peptide)
peptide: MV[dF][dR][dW]FKPV-NH2
modifications: N-terminus assumed
SMILES: CSCC[C@H](N)C(=O)N[C@H](C(=O)N[C@H](Cc1ccccc1)C(=O)N[C@H](CCCNC(=N)N)C(=O)N[C@H](Cc1c[nH]c2ccccc12)C(=O)N[C@@H](Cc1ccccc1)C(=O)N[C@@H](CCCCN)C(=O)N1CCC[C@H]1C(=O)N[C@H](C(N)=O)C(C)C)C(C)C
